According to the supplement of paper PMC12042874:
± gives the uncertainty stated by the source.

Test: amyloid nucleation score (Sup35N fusion, yeast selection) (log enrichment); library NNK3; higher = more nucleation; inactive = no reads after selection
In short: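 Plasmid inserts were Illumina-sequenced at input and output from psi-negative yeast expressing Sup35N fused to peptides of 20 random codons. The yeast were induced with 100 μM copper sulfate for 24 hours and grown 7 days at 30°C on medium lacking adenine and uracil, and sequences with under 100 input reads were excluded. Nucleation score is the DiMSum log enrichment of output over input reads, centred on the mode score of non-aggregating sequences.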
In the case of VNESMNDIANRSDEGYFGCA, the amyloid nucleation score is reported as “inactive”.
In the case of MDGGFECGNEGICWSTCVLG, the amyloid nucleation score is reported as “inactive”.
Work on TSTHCIIWLGRSDRRREMQL yielded an amyloid nucleation score of -0.752 ± 1.9.
In the case of FPKLAIVFMHSSLWYFSYWV, the amyloid nucleation score is reported as “inactive”.
For MSVSSCLTPGDGNESHWNSR, the amyloid nucleation score was “inactive”.
In the case of RVGISTYLVVSEE, the amyloid nucleation score is reported as “inactive”.
With VHLYADPDVMQYNRWDVVGY the amyloid nucleation score was “inactive”.
In the case of LNCPSYPNVGPWNLEVTAFQ, the amyloid nucleation score is reported as “inactive”.
In the case of TCSYANHMSKVFEVVMV, the amyloid nucleation score is reported as “inactive”.
In the case of SENVYPCALKRSKGMLIRMV, the amyloid nucleation score is reported as “inactive”.
In the case of LGHYAKPLSSVQQNRTNMGA, the amyloid nucleation score is reported as “inactive”.
ILLIVL gave an amyloid nucleation score of 1.68 ± 0.061.
In the case of ICRLVLIWVPRSSGGVSSSR, the amyloid nucleation score is reported as “inactive”.
With MRFDNVTMRVLLCFS the amyloid nucleation score was “inactive”.
With SVGMFSVESLVLVKLRLWNL the amyloid nucleation score was “inactive”.
With LVWWDGSEWTTWGVADIDWT the amyloid nucleation score was “inactive”.
In the case of AKFSQVLLLQWGSSPDIDRE, the amyloid nucleation score is reported as 1.11 ± 0.18.
With TRLGYKKGFFMTSSSHRLMV the amyloid nucleation score was “inactive”.
In the case of CVVYLWWLVSASMLCSNWFG, the amyloid nucleation score is reported as “inactive”.
With HCLLCNYRLWSACKCPGYVS the amyloid nucleation score was “inactive”.
With WCCLETRLYL the amyloid nucleation score was 1.5 ± 0.1.
For IRLPIGQGLC, the amyloid nucleation score was “inactive”.
Substance FVANISFWFSVFNRVYESYT has an amyloid nucleation score of 0.841 ± 0.1.
In the case of YWMMLRT, the amyloid nucleation score is reported as “inactive”.
In the case of GLLVWQCMWGLDKKYLHSVY, the amyloid nucleation score is reported as “inactive”.
In the case of CVRTGWIIMDSNKLD, the amyloid nucleation score is reported as “inactive”.
For SVRRQHPFN, the amyloid nucleation score was “inactive”.
In the case of KWFRHFHI, the amyloid nucleation score is reported as “inactive”.
In the case of RFKKVVHSFRFCAIENVLDY, the amyloid nucleation score is reported as “inactive”.
For LCVFWCGIPDRVFCNNGWMV, the amyloid nucleation score was “inactive”.
With LGSTKSPLSCVY the amyloid nucleation score was “inactive”.
With LTTESNLHVCVRRVGQLHLA the amyloid nucleation score was “inactive”.
In the case of EVRRRDLYLWKASETLLRLL, the amyloid nucleation score is reported as “inactive”.
With DRDGQPAWHLS the amyloid nucleation score was “inactive”.
For FDGTVVSR, the amyloid nucleation score was “inactive”.
With YIYNSLLYI the amyloid nucleation score was “inactive”.
For KMDLTGWTI, the amyloid nucleation score was “inactive”.
With ATFIFSDRQSHIHLYSNTQY the amyloid nucleation score was “inactive”.
In the case of FCYEHSLWLCLSYKVTVMRM, the amyloid nucleation score is reported as 1.08 ± 0.15.
For PNRQDYIVTYLGIPNFLSTW, the amyloid nucleation score was “inactive”.
For FIGDGSRDRRDGLLDLY, the amyloid nucleation score was “inactive”.
For RPFLCYLTAPASMNNTLNQV, the amyloid nucleation score was “inactive”.
For DFILVSLLREDTNVGTACRV, the amyloid nucleation score was “inactive”.
For NWSYRDGREPHYI, the amyloid nucleation score was 1.15 ± 0.12.
With LGPREQDLINFNWVFQYLKH the amyloid nucleation score was “inactive”.
With FMFVVWGYINGFGYLTGVN the amyloid nucleation score was “inactive”.
For YSIVRGWMDARDLHMLHLEI, the amyloid nucleation score was “inactive”.
For MYQDPCIHSVCCWIM, the amyloid nucleation score was 1.28 ± 0.096.
For FFLIEQFYTYWMGGIMMIQR, the amyloid nucleation score was “inactive”.
For LCWVNQVREMGRWNTGVQSG, the amyloid nucleation score was “inactive”.
In the case of ILFTPMPVVD, the amyloid nucleation score is reported as “inactive”.
With TYMPAVIIYRVLQAMTAAHH the amyloid nucleation score was “inactive”.
In the case of TKECGKKFNYWVRIDLSRLW, the amyloid nucleation score is reported as “inactive”.
With CGSVNVSTRYKD the amyloid nucleation score was “inactive”.
With SVKLLSVTSCDGGRAWWQGG the amyloid nucleation score was “inactive”.
Substance TYRSTLSVSMAVRGSEMLD has an amyloid nucleation score of -0.085 ± 1.
Work on VIGVNIWSCL yielded an amyloid nucleation score of 1.29 ± 0.1.
In the case of GCECGISHLVLGAKVVPSMI, the amyloid nucleation score is reported as “inactive”.
In the case of MASFSRHVCMYGTLNLSGNA, the amyloid nucleation score is reported as “inactive”.
For LNFSHGSCGSFCGSIMIST, the amyloid nucleation score was “inactive”.
For WLESHGDHGFNEKDSWWPYF, the amyloid nucleation score was “inactive”.
For VLWDGF, the amyloid nucleation score was “inactive”.
With SIKFYLRLMTSLKVKLY the amyloid nucleation score was “inactive”.
With CRCFLPWGWLV the amyloid nucleation score was “inactive”.
For CMYSFGEL, the amyloid nucleation score was “inactive”.
For SLAGEHPRPIVG, the amyloid nucleation score was “inactive”.
LVVCTSAFIGMTDY showed an amyloid nucleation score of -0.532 ± 0.8.
For GFPKWDESSMSTFDCSIRSR, the amyloid nucleation score was “inactive”.
With MIFRAQDSYGPLYT the amyloid nucleation score was “inactive”.
In the case of SVSTGVKIACTPTIVDRQLG, the amyloid nucleation score is reported as “inactive”.
Work on VRLWFSGRTFSVKVVTHAPC yielded an amyloid nucleation score of 1.41 ± 0.098.
With WCKCYMSSSWTC the amyloid nucleation score was “inactive”.
For VYCSSVSCLEVWCGPLHTVR, the amyloid nucleation score was 1.53 ± 0.081.
For LHRSCAIAA, the amyloid nucleation score was “inactive”.
In the case of SFTIIMALCSV, the amyloid nucleation score is reported as “inactive”.
With VIVRDSLISVSSTIRDFVCG the amyloid nucleation score was “inactive”.
With FSLHQSNTLRPWDLIPATW the amyloid nucleation score was “inactive”.
For VYFPTWFTLVFSPSKFWICI, the amyloid nucleation score was “inactive”.
For LLAGYPLWKPKTCQYMKPWL, the amyloid nucleation score was 0.125 ± 0.24.
SFLYDSVNANLNSTCCCGYI showed an amyloid nucleation score of -0.913 ± 0.9.
For FLYSVL, the amyloid nucleation score was “inactive”.
In the case of LLFEMWTWSTVSRRAGDVLS, the amyloid nucleation score is reported as “inactive”.
For CRVLDFSFSYFGMIFKLGTI, the amyloid nucleation score was “inactive”.
For CYNGTLGCGYRVLIRVSGSW, the amyloid nucleation score was “inactive”.
In the case of FVRLHSFA, the amyloid nucleation score is reported as “inactive”.
For LSFQAMLVR, the amyloid nucleation score was “inactive”.
With MMTIRSSMLAKGLVNALATV the amyloid nucleation score was “inactive”.
RESNNLLFQQVGYLYYSWFY gave an amyloid nucleation score of 1.86 ± 0.078.
For DRHCLSL, the amyloid nucleation score was 0.582 ± 0.17.
Work on MVSSLRALCPQHFVCSVVCM yielded an amyloid nucleation score of 0.885 ± 0.14.
With CFCLSRL the amyloid nucleation score was “inactive”.
With KNGKWRGISSYRNRRFNTGI the amyloid nucleation score was “inactive”.
In the case of MGMLNGSSSMSDGYVYGGLW, the amyloid nucleation score is reported as “inactive”.
For YFEVSLIRLYHEKTTTRMVY, the amyloid nucleation score was “inactive”.
With DLVNVYVLPLVS the amyloid nucleation score was “inactive”.
With FSSYTWNPL the amyloid nucleation score was “inactive”.
For RAHPALVWMIARTKSSSICL, the amyloid nucleation score was “inactive”.
With GTNIFVKTDTYCPFICST the amyloid nucleation score was “inactive”.
With CRVFRNNDYSKVSFWLVSVF the amyloid nucleation score was “inactive”.
For SGDKSYRSRYHWMGIQRVNR, the amyloid nucleation score was “inactive”.
With LVALKSHDT the amyloid nucleation score was “inactive”.
For KVVNGVRCKKSQGLI, the amyloid nucleation score was “inactive”.
In the case of ASPYTGDWDTVMC, the amyloid nucleation score is reported as “inactive”.
In the case of CKSSWDVVMSSVSDWFWDGA, the amyloid nucleation score is reported as “inactive”.
HLLTLTI gave an amyloid nucleation score of 0.501 ± 0.26.
For LNLWPNSD, the amyloid nucleation score was “inactive”.
In the case of SWITHSIGSDTATGYETFFN, the amyloid nucleation score is reported as “inactive”.
With TKWANR the amyloid nucleation score was “inactive”.
Work on ANICVFFSLDWFCPLFLSHK yielded an amyloid nucleation score of 2.34 ± 0.079.
With FLANGSDWIFLWFRIHVDHF the amyloid nucleation score was “inactive”.
In the case of NYHRDSDVLTIFVISCPFLR, the amyloid nucleation score is reported as “inactive”.
In the case of CPTASHNIALLTYDQTRTQY, the amyloid nucleation score is reported as “inactive”.
In the case of DPWDPYFNLRVSYPFKYYLS, the amyloid nucleation score is reported as “inactive”.
For RADPTRITSPSLLTIMKTHE, the amyloid nucleation score was “inactive”.
With NFFESLMVMSDKASLSVMK the amyloid nucleation score was “inactive”.
With TLLYERNEYVVRNTYWDICL the amyloid nucleation score was “inactive”.
With RSRSYRMGSLLVKSWILTLT the amyloid nucleation score was “inactive”.
In the case of RVMRHLFHFVCNKSLDYWYR, the amyloid nucleation score is reported as “inactive”.
In the case of AVWRYSVSYTLYHSSGLLES, the amyloid nucleation score is reported as “inactive”.
In the case of NRIVTVLMFCWLEG, the amyloid nucleation score is reported as “inactive”.
In the case of SSIGFLRSLGHQRPRSVSLP, the amyloid nucleation score is reported as “inactive”.
With EGRRPKYIGNESRYNMYHPY the amyloid nucleation score was “inactive”.
In the case of SSDGFCLVIVYVCPSWYMLV, the amyloid nucleation score is reported as “inactive”.
In the case of WGMLRTTT, the amyloid nucleation score is reported as -0.567 ± 1.5.
For VDLWYIFGPSPYATCFVLLV, the amyloid nucleation score was “inactive”.
With LCFWNGLTTIDYYSFMGLLS the amyloid nucleation score was 0.409 ± 0.15.
For LFYCSNCGKGIIQLRVGLYP, the amyloid nucleation score was “inactive”.
For VSDRCFKSTWSLMFYMGVVV, the amyloid nucleation score was “inactive”.
For LRVKNDVHGLLELGSVDVSI, the amyloid nucleation score was “inactive”.
CLLTLMREVSCLLYFYHRAW showed an amyloid nucleation score of 1.56 ± 0.091.
Work on MWSDLGV yielded an amyloid nucleation score of -0.173 ± 0.87.
With VGQYGRFDTSQFCVFVVGE the amyloid nucleation score was “inactive”.
In the case of VAFTLDGKARDKYRNGDHNK, the amyloid nucleation score is reported as “inactive”.
With IGRLMA the amyloid nucleation score was “inactive”.
In the case of GTYLGELVTGLTPGRCPGHF, the amyloid nucleation score is reported as “inactive”.
With YISSVQGCPMEGGLPKSSAS the amyloid nucleation score was “inactive”.
For LGDAFWFEIH, the amyloid nucleation score was “inactive”.
With VCDTM the amyloid nucleation score was “inactive”.
TVSIRIINT showed an amyloid nucleation score of 0.15 ± 0.66.
With GCLEFGVMEFPGEDEFNFLG the amyloid nucleation score was “inactive”.
For TSLFGIPQCRFRVRSWNDVV, the amyloid nucleation score was “inactive”.
In the case of NQQWIP, the amyloid nucleation score is reported as “inactive”.
In the case of TVKYHGSPCVLHDLLIVERR, the amyloid nucleation score is reported as “inactive”.
In the case of LKFLLRNILVRYYMDVGPVS, the amyloid nucleation score is reported as “inactive”.
For GNSIRAVVLLRMGLELDSGV, the amyloid nucleation score was “inactive”.
GVNVTKVFTFRMVSCGPDDF gave an amyloid nucleation score of 0.294 ± 0.21.
KFGHSVKSINLLNATTHVWI gave an amyloid nucleation score of -0.126 ± 0.47.
Substance RKVSSLVITRMAWMLSGNWL has an amyloid nucleation score of 2.57 ± 0.051.
With KRFMDLTHIESSRAKVYRVT the amyloid nucleation score was “inactive”.
In the case of SLRRKIGLLIFFDNLIF, the amyloid nucleation score is reported as “inactive”.
In the case of QQGFSVLERCISEV, the amyloid nucleation score is reported as “inactive”.
In the case of GAQKYSFPRVSWPILGRIDY, the amyloid nucleation score is reported as “inactive”.
WYWSLA gave an amyloid nucleation score of -0.174 ± 0.59.
With VWLWPI the amyloid nucleation score was “inactive”.
In the case of NTLGGRLLSLCARGMAIDCL, the amyloid nucleation score is reported as 0.625 ± 0.35.
With MQPGYQCDNVVRSCHDAHGY the amyloid nucleation score was “inactive”.
For SSLRR, the amyloid nucleation score was “inactive”.
With HNSACFANSDEVSVASRAMT the amyloid nucleation score was 2.45 ± 0.08.
With RNNCCAKVIYKWLSTFGQTD the amyloid nucleation score was “inactive”.
